In the supplement of paper PMC12764529:
± gives the half width of the 95% confidence interval.

test: folding stability dG unfold from chymotrypsin proteolysis; higher = more stable
Outline: (§1)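 Designed mini-proteins (under 80 residues, no cysteine) in a PA-tagged cDNA display construct were digested with trypsin and chymotrypsin. Each protease was used at 11 concentrations (threefold dilutions) plus a no-protease condition, followed by sequencing. K50 was inferred by Bayesian fitting of sequencing counts, and unfolding free energy was derived against a sequence-predicted unfolded-state K50 and a shared folded-state K50, per protease or combined. Only designs with AlphaFold2 dimer inter-PAE above 15 were kept.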

Q: With “SAGSVTTITDPAGTTTEIQPLPDGSLLTTTTTHTTNPATGGATTTTTTTLVSPVPGQPSTTTSTTTTPASAG [r5_424_JUSTAS]” as the sequence, how does the “folding stability dG unfold” value read?
A: 0.195 ± 0.027 kcal/mol

Q: For “SAGGSAGGSAGMYVYKITYPTPSGGASEKLYPSSVPLEEVLKEAEERGAVEIEILPESELSAGGSAGGSAGG [r11_490_JUSTAS]”, which “folding stability dG unfold” value is on record?
A: 0.151 ± 0.19 kcal/mol

Q: For “SAGGSAGGSKKIKIKVKVKNPKTKKYYEIEIEISEEELKEGKLTKEQIKKELEKLGYEVEIVPSAGGSAGGS [r20_221_TrROS_Hall]”, which “folding stability dG unfold” value is on record?
A: 2.6 ± 0.07 kcal/mol

Q: With “SAGGVEEAREALEEAGFEIVDVDEETGTVTVRNEETEETITVRVEAPAPPPVEVEEEVEVEEEEEEESAGGS [r16_197_TrROS_Hall]” as the sequence, how does the “folding stability dG unfold” value read?
A: 1.48 ± 0.12 kcal/mol

Q: For “SAGGSADADDVTIVINMFRNPNNKGWFFRIEIQDPDKEREIFMPFDDIPKFQEAGLKIEITEWYPFSAGGSA [r15_783_TrROS]”, which “folding stability dG unfold” value is on record?
A: 3.29 ± 0.038 kcal/mol

Q: Which “folding stability dG unfold” value does the source give for “SAGMSADIPVDPVTGTLTITVTDAFNPDKSTTTTVPLSELEAELGRPLTLEEVAARVEAAGVATVTVGPSAG [r14_809_JUSTAS]” here?
A: -0.0285 ± 0.085 kcal/mol

Q: For “SMREIPPEDLKKAANAYLNGDKEKVEQLFKDAGFKKVVLEEVEGDGEVLFVALVEHPDGPTVLTVSSSDFSA [r9_783_TrMRF]”, which “folding stability dG unfold” value is on record?
A: 1.33 ± 0.1 kcal/mol

Q: With “SAGGSQEELAKQLAEELAKKEGLKEVKVSITPSPGPVLNITFEFYDENGNKKGVKSKTIPLPPDLLSAGGSA [r2_153_JUSTAS]” as the sequence, how does the “folding stability dG unfold” value read?
A: 0.0811 ± 0.15 kcal/mol

Q: For “SAGGGMVRPSIKITKHPDTYVATVTVTHPHRPVTVTLPFSSEPEAISEAEKIVEELIATPVPSPAGASAGGS [r16_24_JUSTAS]”, which “folding stability dG unfold” value is on record?
A: 0.831 ± 0.072 kcal/mol

Q: For “SAGGAPGVPSVTVIPFDPSTGRALALVVDGDRVYVISSAVPLEVLRELGVDRVEPLPDGTLVAVSLASAGGS [r8_382_TrMRF]”, which “folding stability dG unfold” value is on record?
A: 1.49 ± 0.027 kcal/mol

Q: With “SAGSSLTTTSTTTFPGTVRVTTKTPDGKTFTLTVSVSTVPTPDGRVVPSVTTTMDPAARSSNVSPEVDRSAG [r5_462_JUSTAS]” as the sequence, how does the “folding stability dG unfold” value read?
A: -0.0322 ± 0.075 kcal/mol

Q: With “SAGGSMVKEIEIPVPEDWTPEDAVEAAREYLEANPELENVIVRFTLPDGTPLVVEIKPGGKIVKVTPESAGG [r13_690_JUSTAS]” as the sequence, how does the “folding stability dG unfold” value read?
A: 3.26 ± 0.07 kcal/mol

Q: Which “folding stability dG unfold” value does the source give for “SAGGSAGGSKPGEVYEVKVKIKDKETGKYYEVKVKVYRLEDGTLLIEVDGKIFEVPVKDIEIESAGGSAGGS [r12_790_TrROS_Hall]” here?
A: 4.2 ± 0.082 kcal/mol

Q: Which “folding stability dG unfold” value does the source give for “SAGGSAGGSMTRTITLSKEELKKKYPNATLEEIAKDIIEKEPGVKEVTVEEFPGTVKITVTKLSAGGSAGGS [r12_590_JUSTAS]” here?
A: 2.84 ± 0.058 kcal/mol

Q: Which “folding stability dG unfold” value does the source give for “SAGGMKVTPNGKVVKKKPKVPVKKVTLTVKVKTAEEAKALADALRDLGYKVTVDEETGVVTVEVEIESAGGS [r16_765_TrROS_Hall]” here?
A: 1.5 ± 0.058 kcal/mol

Q: With “SAKVVIIKVKSPEELKAAIEELKKKLPEGAVIYIVNEDGSVYKITFDKKTGKVKIEKVKSLEELKKLLKSAG [r14_913_TrROS_Hall]” as the sequence, how does the “folding stability dG unfold” value read?
A: 3.96 ± 0.086 kcal/mol

Q: For “SAGSAEEIAKKLAEELRKAGYEVKVKVVEVEKVGDGKVVVRVEIEVTYYDKNGKPVKKERFELTIVLPSAGG [r19_418_TrROS_Hall]”, which “folding stability dG unfold” value is on record?
A: 4.69 ± 0.27 kcal/mol

test: folding stability dG unfold (combined trypsin and chymotrypsin); higher = more stable
Outline: as §1

Q: For “SAGKKSTLTIDLPGSTVTLTYDPATGKVRITVNLGVAVAGIDPETGKPGIVTGSVTLEADIDVPPGAPISAG [r5_195_TrMRF]”, which “folding stability dG unfold” value is on record?
A: 2.65 ± 0.15 kcal/mol

Q: With “SAGGSAGGSAKIIIIEEDPEEAIRRVEELFGPGARIEPVRVVRVGDKVYVAVGIDIPASLASAGGSAGGSAG [r3_87_TrMRF]” as the sequence, how does the “folding stability dG unfold” value read?
A: 0.977 ± 0.044 kcal/mol

Q: With “SAGGSAGGSAGGEWRTLYIPIPGMPPEFIETFALELLDDGAKVEDIEWNPNNGYLMITVRSAGGSAGGSAGG [r7_906_TrROS]” as the sequence, how does the “folding stability dG unfold” value read?
A: 1.82 ± 0.075 kcal/mol

Q: For “SAGGSAGGSAGGKPVIYRIEVRLPDSPEREIFEIEVPPDRPEVAEELAKLLGPNVKMEPLSAGGSAGGSAGG [r11_250_TrMRF]”, which “folding stability dG unfold” value is on record?
A: -0.387 ± 0.38 kcal/mol

Q: For “SAGGMPVPVLIVVPEDKIEEIIKKIREETDEDVEIKAFKLPDGRVLLLITFNDPQLAEDFLKKFGFGSAGGS [r16_172_TrMRF]”, which “folding stability dG unfold” value is on record?
A: 5.13 ± 0.17 kcal/mol

Q: With “SAGGSAGGSEYYIYIQIDKNGKIEIVDVVPPGEPMEDMPPEQYDHTIMFPFESPEDALAEILKSAGGSAGGS [r12_452_TrROS]” as the sequence, how does the “folding stability dG unfold” value read?
A: 0.719 ± 0.075 kcal/mol

Q: Which “folding stability dG unfold” value does the source give for “SAGGSAGMVVEVREFEIEPDEDKKIKATLERYETPEGPRYVLTIEDPSKNEKKSYPLEPGVDFKKLSAGGSA [r15_75_JUSTAS]” here?
A: 0.488 ± 0.2 kcal/mol

Q: For “SKNYPIRISIFQRNPNGNPQTVTYPIPVDAAKELKDAGFEVKDVDPDSGMIMVKFPMPNYPVYIMISIEDSA [r9_5_TrROS]”, which “folding stability dG unfold” value is on record?
A: 2.98 ± 0.13 kcal/mol

Q: For “SGPTSITFPDGSSASISLSPDSFTITITLPGSSATSTYDPATGTTTITLTFSSSTVTLTLDPATGTLTVGSA [r9_207_JUSTAS]”, which “folding stability dG unfold” value is on record?
A: 4.89 ± 0.11 kcal/mol

Q: Which “folding stability dG unfold” value does the source give for “SAEDEYEVELTFEAPLNEPEVIEKIKKELEELGFEIEEVKVEVLEDPKTVKVTLKARVKGIPPEKLKALSAG [r14_956_TrMRF]” here?
A: 1.82 ± 0.086 kcal/mol

Q: With “SAGGSAGMVLVRTPDGEVLLLPFTSPEEAEEALERLTGGRLVSVRLEGTPGDRLLLVAEVERPPGGSAGGSA [r15_447_TrMRF]” as the sequence, how does the “folding stability dG unfold” value read?
A: 2.06 ± 0.11 kcal/mol

Q: For “SAGEATVEKLEDGYVVVFKDGSVAFLPAVPPAVPVVEIPFKDPEEGRRAVEELGADVLDIGDDSIVVAGSAG [r5_328_TrMRF]”, which “folding stability dG unfold” value is on record?
A: -0.01 ± 0.1 kcal/mol

Q: With “SAGEIAEKLGFKVEDVSIQKEDGTYRIVVRFPMDDRPVVIMGDIKVEEKNGKRKIEIDIDIMPLPPDDPSAG [r5_516_TrROS]” as the sequence, how does the “folding stability dG unfold” value read?
A: 1.7 ± 0.086 kcal/mol

Q: For “SAGGSAGGSAMLRIRFENGLEIEIPKDMTLEELKKLAEELAEELKKEGKEVEVKIVEIEPVPSAGGSAGGSA [r18_213_TrROS_Hall]”, which “folding stability dG unfold” value is on record?
A: 2.03 ± 0.075 kcal/mol

Q: Which “folding stability dG unfold” value does the source give for “SAGGPYMEIQFPMPEDQVRPALEKAADEWGMEVKEINYHPNNGMVTITVNDNMPPNRIRKAIEKVLKSAGGS [r8_338_TrROS]” here?
A: -0.181 ± 0.15 kcal/mol

Q: Which “folding stability dG unfold” value does the source give for “SAGGMEIKIENIEINPDKKTIQYNFEIYHDGQPFKMDISIEVDPKNGLYKITVTYPDFPGVKHTLYIPSAGG [r13_615_TrROS]” here?
A: 5.35 ± 0.54 kcal/mol

Q: For “SAGSVTTITDPAGTTTEIQPLPDGSLLTTTTTHTTNPATGGATTTTTTTLVSPVPGQPSTTTSTTTTPASAG [r5_424_JUSTAS]”, which “folding stability dG unfold” value is on record?
A: 1 ± 0.051 kcal/mol

Q: For “SAGGSAGGSAGMYVYKITYPTPSGGASEKLYPSSVPLEEVLKEAEERGAVEIEILPESELSAGGSAGGSAGG [r11_490_JUSTAS]”, which “folding stability dG unfold” value is on record?
A: 0.115 ± 0.23 kcal/mol

Q: With “SAGGSAGGSKKIKIKVKVKNPKTKKYYEIEIEISEEELKEGKLTKEQIKKELEKLGYEVEIVPSAGGSAGGS [r20_221_TrROS_Hall]” as the sequence, how does the “folding stability dG unfold” value read?
A: 2.9 ± 0.095 kcal/mol

Q: For “SAGGVEEAREALEEAGFEIVDVDEETGTVTVRNEETEETITVRVEAPAPPPVEVEEEVEVEEEEEEESAGGS [r16_197_TrROS_Hall]”, which “folding stability dG unfold” value is on record?
A: 1.34 ± 0.096 kcal/mol

Q: For “SAGGSADADDVTIVINMFRNPNNKGWFFRIEIQDPDKEREIFMPFDDIPKFQEAGLKIEITEWYPFSAGGSA [r15_783_TrROS]”, which “folding stability dG unfold” value is on record?
A: 3.03 ± 0.086 kcal/mol

Q: Which “folding stability dG unfold” value does the source give for “SAGMSADIPVDPVTGTLTITVTDAFNPDKSTTTTVPLSELEAELGRPLTLEEVAARVEAAGVATVTVGPSAG [r14_809_JUSTAS]” here?
A: 0.82 ± 0.056 kcal/mol

Q: With “SMREIPPEDLKKAANAYLNGDKEKVEQLFKDAGFKKVVLEEVEGDGEVLFVALVEHPDGPTVLTVSSSDFSA [r9_783_TrMRF]” as the sequence, how does the “folding stability dG unfold” value read?
A: 1.04 ± 0.25 kcal/mol

Q: For “SAGGSQEELAKQLAEELAKKEGLKEVKVSITPSPGPVLNITFEFYDENGNKKGVKSKTIPLPPDLLSAGGSA [r2_153_JUSTAS]”, which “folding stability dG unfold” value is on record?
A: 0.515 ± 0.53 kcal/mol

Q: For “SAGGGMVRPSIKITKHPDTYVATVTVTHPHRPVTVTLPFSSEPEAISEAEKIVEELIATPVPSPAGASAGGS [r16_24_JUSTAS]”, which “folding stability dG unfold” value is on record?
A: 0.841 ± 0.11 kcal/mol

Q: For “SAGGAPGVPSVTVIPFDPSTGRALALVVDGDRVYVISSAVPLEVLRELGVDRVEPLPDGTLVAVSLASAGGS [r8_382_TrMRF]”, which “folding stability dG unfold” value is on record?
A: 1.38 ± 0.041 kcal/mol

Q: For “SAGSSLTTTSTTTFPGTVRVTTKTPDGKTFTLTVSVSTVPTPDGRVVPSVTTTMDPAARSSNVSPEVDRSAG [r5_462_JUSTAS]”, which “folding stability dG unfold” value is on record?
A: -0.144 ± 0.086 kcal/mol

Q: For “SAGGSMVKEIEIPVPEDWTPEDAVEAAREYLEANPELENVIVRFTLPDGTPLVVEIKPGGKIVKVTPESAGG [r13_690_JUSTAS]”, which “folding stability dG unfold” value is on record?
A: 2.83 ± 0.15 kcal/mol

Q: Which “folding stability dG unfold” value does the source give for “SAGGSAGGSKPGEVYEVKVKIKDKETGKYYEVKVKVYRLEDGTLLIEVDGKIFEVPVKDIEIESAGGSAGGS [r12_790_TrROS_Hall]” here?
A: 3.99 ± 0.11 kcal/mol

Q: For “SAGGSAGGSMTRTITLSKEELKKKYPNATLEEIAKDIIEKEPGVKEVTVEEFPGTVKITVTKLSAGGSAGGS [r12_590_JUSTAS]”, which “folding stability dG unfold” value is on record?
A: 2.57 ± 0.18 kcal/mol

Q: For “SAGGMKVTPNGKVVKKKPKVPVKKVTLTVKVKTAEEAKALADALRDLGYKVTVDEETGVVTVEVEIESAGGS [r16_765_TrROS_Hall]”, which “folding stability dG unfold” value is on record?
A: 1.28 ± 0.1 kcal/mol

Q: Which “folding stability dG unfold” value does the source give for “SAKVVIIKVKSPEELKAAIEELKKKLPEGAVIYIVNEDGSVYKITFDKKTGKVKIEKVKSLEELKKLLKSAG [r14_913_TrROS_Hall]” here?
A: 3.47 ± 0.14 kcal/mol

Q: Which “folding stability dG unfold” value does the source give for “SAGSAEEIAKKLAEELRKAGYEVKVKVVEVEKVGDGKVVVRVEIEVTYYDKNGKPVKKERFELTIVLPSAGG [r19_418_TrROS_Hall]” here?
A: 4.25 ± 0.19 kcal/mol
